Test results published in patent US20240295562.

How the values were obtained:
QP47 peptide (FAAAYPDDD) = biological target: T1, QP47 peptide (FAAAYPDDD)
T1 chain: FAAAYPDDD

QP514 (DQQRLIFAYPDDD) = biological target: T2, QP514 (DQQRLIFAYPDDD)
T2 chain: DQQRLIFAYPDDD

IAKLDEESILKQK = biological target: T3, IAKLDEESILKQK
T3 chain: IAKLDEESILKQK

WKELDEESILKQK = biological target: T4, WKELDEESILKQK
T4 chain: WKELDEESILKQK

RRLDEESILKQK = biological target: T5, RRLDEESILKQK
T5 chain: RRLDEESILKQK

KKLDEESILKQK = biological target: T6, KKLDEESILKQK
T6 chain: KKLDEESILKQK

B1: Pyrococcus horikoshii TET II Aminopeptidase (hTET II) (protein)
chain: MEVRNMVDYELLKKVVEAPGVSGYEFLGIRDVVIEEIKDYVDEVKVDKLGNVIAHKKGEGPKVMIAAHMDQIGLMVTHIEKNGFLRVAPIGGVDPKTLIAQRFKVWIDKGKFIYGVGASVPPHIQKPEDRKKAPDWDQIFIDIGAESKEEAEDMGVKIGTVITWDGRLERLGKHRFVSIAFDDRIAVYTILEVAKQLKDAKADVYFVATVQEEVGLRGARTSAFGIEPDYGFAIDVTIAADIPGTPEHKQVTHLGKGTAIKIMDRSVICHPTIVRWLEELAKKHEIPYQLEILLGGGTDAGAIHLTKAGVPTGALSVPARYIHSNTEVVDERDVDATVELMTKALENIHELKI
RSC (rapid sequential cleavage) population, protein sequencing assay with hTETII (1 µM) (QP47 peptide (FAAAYPDDD)): RSC population is ~40%

B2: AP30 (protein)
chain: MEVRNMVDYELLKKVVEAPGVSGYEFLGIRDVVIEEIKDYVDEVKVDKLGNVIAHKKGEGPKVMIAAHMDQIGLMVTHIEKNGFLRVAPIGGVDPKTLIAQRFKVWIDKGKFIYGVGASVPPHIQKPEDRKKAPDWDQIFIDIGAESKEEAEDMGVKIGTVITWDGRLERLGKHRFVSIAFDDRIAVYTILEVAKQLKDAKADVYFVATVQEEVGLRGARTSAFGIEPDYGFAIDVTIAADIPGTPEHKQVTHLGKGTAIKIMDRSVICHPTIVRWLEELAKKHEIPYQLEILLGGGTDAGAIHLTKAGVPTGALSVPARYIHSNTEVVDERDVDATVELMTKALENIHELKIGGSHHHHHHHHHHGGGSGGGSGGGSGLNDFFEAQKIEWHEGGGSGGGSGGGSGLNDFFEAQKIEWHE
RSC (rapid sequential cleavage) population, protein sequencing assay with AP30 (5 µM) (QP47 peptide (FAAAYPDDD)): The RSC population with AP30 was only ~25%

B3: AP37 (protein)
chain: MDLKGGESMVDWKLMQEIIEAPGVSGYEHLGIRDIVVDVLKEVADEVKVDKLGNVIAHFKGSSPRIMVAAHMDKIGVMVNHIDKDGYLHIVPIGGVLPETLVAQRIRFFTEKGERYGVVGVLPPHLRRGQEDKGSKIDWDQIVVDVGASSKEEAEEMGFRVGTVGEFAPNFTRLNEHRFATPYLDDRICLYAMIEAARQLGDHEADIYIVGSVQEEVGLRGARVASYAINPEVGIAMDVTFAKQPHDKGKIVPELGKGPVMDVGPNINPKLRAFADEVAKKYEIPLQVEPSPRPTGTDANMQINREGVATAVLSIPIRYMHSQVELADARDVDNTIKLAKALLEELKPMDFTPGHHHHHHHHHH
cleavage of arginine in protein sequencing assay, AP37 (40 µM) alone (QP514 (DQQRLIFAYPDDD)): AP37 shows better efficiency cleaving arginine than PfuTET when alone
Percent N-Terminal Residue Cut (HPLC assay), AP37 after conditioning, 1 µM (IAKLDEESILKQK): 74%
Percent N-Terminal Residue Cut (HPLC assay), AP37 after conditioning, 10 µM (IAKLDEESILKQK): 100%
Percent N-Terminal Residue Cut (HPLC assay), AP37 before conditioning, 1 µM (IAKLDEESILKQK): 13%
Percent N-Terminal Residue Cut (HPLC assay), AP37 before conditioning, 10 µM (IAKLDEESILKQK): 57%
Percent N-Terminal Residue Cut (HPLC assay), AP37 after conditioning, 1 µM (WKELDEESILKQK): 97%
Percent N-Terminal Residue Cut (HPLC assay), AP37 after conditioning, 10 µM (WKELDEESILKQK): 99%
Percent N-Terminal Residue Cut (HPLC assay), AP37 before conditioning, 1 µM (WKELDEESILKQK): 18%
Percent N-Terminal Residue Cut (HPLC assay), AP37 before conditioning, 10 µM (WKELDEESILKQK): 55%
Percent N-Terminal Residue Cut (HPLC assay), AP37 after conditioning, 1 µM (RRLDEESILKQK): 70%
Percent N-Terminal Residue Cut (HPLC assay), AP37 after conditioning, 10 µM (RRLDEESILKQK): 100%
Percent N-Terminal Residue Cut (HPLC assay), AP37 before conditioning, 1 µM (RRLDEESILKQK): 8%
Percent N-Terminal Residue Cut (HPLC assay), AP37 before conditioning, 10 µM (RRLDEESILKQK): 26%
Percent N-Terminal Residue Cut (HPLC assay), AP37 after conditioning, 1 µM (KKLDEESILKQK): 61%
Percent N-Terminal Residue Cut (HPLC assay), AP37 after conditioning, 10 µM (KKLDEESILKQK): 100%
Percent N-Terminal Residue Cut (HPLC assay), AP37 before conditioning, 1 µM (KKLDEESILKQK): 11%
Percent N-Terminal Residue Cut (HPLC assay), AP37 before conditioning, 10 µM (KKLDEESILKQK): 71%
